Test results taken from paper PMC4690146.

Molecular target: CD36 (human (endogenous in primary monocytes)) (UniProt P16671)
Sequence of UniProt P16671 (P16671 whole entry): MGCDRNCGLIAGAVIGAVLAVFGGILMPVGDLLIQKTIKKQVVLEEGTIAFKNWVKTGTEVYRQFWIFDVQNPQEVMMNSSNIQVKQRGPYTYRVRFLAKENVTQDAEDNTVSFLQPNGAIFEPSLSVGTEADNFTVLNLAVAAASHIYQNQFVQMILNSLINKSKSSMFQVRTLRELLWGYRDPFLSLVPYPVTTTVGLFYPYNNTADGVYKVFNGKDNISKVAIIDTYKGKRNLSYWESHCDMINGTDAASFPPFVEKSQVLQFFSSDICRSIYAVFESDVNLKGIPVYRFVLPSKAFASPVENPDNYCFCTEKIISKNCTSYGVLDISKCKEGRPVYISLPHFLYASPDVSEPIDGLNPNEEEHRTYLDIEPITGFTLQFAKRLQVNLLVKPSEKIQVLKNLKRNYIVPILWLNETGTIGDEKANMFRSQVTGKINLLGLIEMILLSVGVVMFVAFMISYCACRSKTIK

bovine lactoferrin (natural protein)
CD36 surface expression on Mo (flow cytometry, percentage of CD36 positive cells) after bLF 100 μg/mL for 18 h (% CD36 positive cells): < 30
